Results published in PMC2718843.

Tests used:
[1] = molecular target: gp120 from CC1/85 cl.6 (HIV-1)
[2] = molecular target: gp120 from CC1/85 cl.7 (HIV-1)
[3] = molecular target: gp120 from CC101.19 cl.7 (HIV-1)
[4] = molecular target: gp120 from D1/85.16 cl.23 (HIV-1)

sCD4 (domain or fragment)
IC50 for inhibition of replication of the clonal virus in PBMC (p24 antigen); inhibits gp120-CD4 binding [1]: > 25 µg/mL
IC50 for inhibition of replication of the clonal virus in PBMC (p24 antigen); inhibits gp120-CD4 binding [2]: 0.1 µg/mL
IC50 for inhibition of replication of the clonal virus in PBMC (p24 antigen); inhibits gp120-CD4 binding [3]: 0.1 µg/mL
IC50 for inhibition of replication of the clonal virus in PBMC (p24 antigen); inhibits gp120-CD4 binding [4]: 10 µg/mL
